40 sequences from the nanobody polyreactivity screen of Harvey et al. (2022) can be followed below.

The nature of this series: yeast display, Sf9 membrane polyspecificity reagent, FACS + sequencing; frameworks hold sequencing errors. A digest of the protocol:
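Nanobodies from a synthetic yeast display library (Saccharomyces cerevisiae BJ5465), induced 36–48 hours with galactose, were stained 1 hour at 4 °C with 10% biotinylated, detergent-solubilized Sf9 membrane reagent, enriched on streptavidin microbeads, then FACS-sorted. Anti-HA (expression) and streptavidin (reagent binding) fluorescence set low and high (top ~1%) gates. Polyreactivity labels come from the gate of origin. Genes were colony-PCR amplified, MiSeq 2 × 250 sequenced and filtered by CDR length.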
As for “QVQLVESGGGLVQAGGSLRLSCAASGRIFSTYAMGWYRQAPGKERELVAAINKIGGSTYYADSVKGRITISRDNAKNTVYLQMNSLKPEDTAVYYCAADAPYYPVRRYYYWGQGTQVTVSS”, the “polyreactivity (PSR sort gate)” value was “low polyreactivity”.

Take “QVQLVESGGGLVQAGGSLRLSCAASGRIFSTYAMGWYRQAPGKERELVAAITNSAGSTYYADSVKGRFTISRDNAKNTVYLHMNSLKPEDTALYYCATGWSRISYGFDYWGQGTLVTVSS”: the “polyreactivity (PSR sort gate)” value is listed as “low polyreactivity”.

As for “QVQLVESGGGLVQAGGSLRLSCAASGRIFSTYAMGWYRQAPGKERELVAAITWDGRTYYADSVKGRFTISRDNAKNTVYLQMNSLKPEDTAVYYCAADGEYRYDWEYESWGQGTQVTVSS”, the “polyreactivity (PSR sort gate)” value is “low polyreactivity”.

“QVQLVESGGGLVQAGGSLRLSCAASGRIFSVYAMGWYRQAPGKEREFVAAITKGGVGTYYADSVKGRFTISRDNAKNTVSLQMNCLKPEDTAVYYCAARGTSRQTWLFRYNWNDYWGQGTQVTVSS”: the “polyreactivity (PSR sort gate)” value is listed as “high polyreactivity”.

Consider “QVQLVESGGGLVQAGGSLRLSCAASGRIFSVYAMGWYRQAPGKEREFVAAITKGGVGTYYADSVKGRFTISRDNAKNTVYLQMNSLKPEDTAVYYGAARHYYGADRYYSWGQGTQVTVSS”, for which the “polyreactivity (PSR sort gate)” value is listed as “high polyreactivity”.

“QVQLVESGGGLVQAGGSLRLSCAASGRIFSVYAMGWYRQEPGKERELVAAITRNGATTYYADSVKGRFTISRDNAKNTVYLQMNSLKPEDTAVYYCAARPLFASRTKYGYWGQGTQVTVSS”: the “polyreactivity (PSR sort gate)” value is on record as “high polyreactivity”.

“QVQLVESGGGLVQAGGSLRLSCAASGRIFSVYTKGWYRQAPGKERELVATISSGGRTNYADSVKGRFTISRDNAKNTVYLQINSLKPEDSAVYYCAAVPYGFVGYDDYWGQGSQVTVSS”: the “polyreactivity (PSR sort gate)” value is reported as “low polyreactivity”.

Take “QVQLVESGGGLVQAGGSLRLSCAASGRIFSVYTMGLYRQAPGKERELGAAISSGGRTYYADSVKGRFTISRDNAKNTVYLQMNSLKPEDTAVYYCAAGSHYAFYYWGQGTQVTVSS”: the “polyreactivity (PSR sort gate)” value is reported as “high polyreactivity”.

“QVQLVESGGGLVQAGGSLRLSCAASGRIFSWYAMGWYRQAPGKERELVAAITVRGSTYYADSVKGRFTISRDNAKNTVYLQMNSLKPEDTAVYYCAAGGYPGTTYYGYDYWGQGTQVTVSS”: the “polyreactivity (PSR sort gate)” value is “low polyreactivity”.

On to “QVQLVESGGGLVQAGGSLRLSCAASGRIFSWYAMGWYRQAPGKERELVARITSGVSTNYADSVKGRFTISRDNEKNTVYLQMNSLKPEDTAVYDCAADDYSCLYYSSTYRYEYWGQGTQVTVSS”, for which the “polyreactivity (PSR sort gate)” value was “low polyreactivity”.

With “QVQLVESGGGLVQAGGSLRLSCAASGRIFSYNAMGWYRQAPGKERDLVASISGGGSTYADSVKGRFTISRDNAKNTVYLQMNRLKPADTAVYYCNAVHFSYEYDYWGQGTQVTVSS”, the “polyreactivity (PSR sort gate)” value is reported as “high polyreactivity”.

Take “QVQLVESGGGLVQAGGSLRLSCAASGRIFSYNARGWYRQAPGKEWELVAAISSGGSTYYADSVKGRFTISRDNAKKTVYLQMNSLKPEDTAVYYCAADRRYYSDLYYWGQGTQVTVSS”: the “polyreactivity (PSR sort gate)” value is recorded as “low polyreactivity”.

For “QVQLVESGGGLVQAGGSLRLSCAASGRIFSYNTMGWYRQAPGKERELVAAISCSGGSTSYADSVKGRFTISRDNAKNTVYLQMNSLKPEDTAVYYCATGSKRNPFYRGNYWGQGTQVTVSS”, the “polyreactivity (PSR sort gate)” value is given as “low polyreactivity”.

With “QVQLVESGGGLVQAGGSLRLSCAASGRIFSYYAMGWSRQAPGNERELVAAITWSGGRTYYADSVKGRFTISRDNAKNTVYLQMNSLNPEDTAVYYCAADYYYGSLWDNKLGYWGQGTQVTVSS”, the “polyreactivity (PSR sort gate)” value is reported as “high polyreactivity”.

For the sequence “QVQLVESGGGLVQAGGSLRLSCAASGRIFSYYAMGWYRQAPGKDRELVAAISRSGGRTYYADSVKGRFTISRDNAKNTVYLQMNSLNPEDTAVYYCAATFSRGYDYWGQGTQVTVSS”, the “polyreactivity (PSR sort gate)” value is “high polyreactivity”.

Take “QVQLVESGGGLVQAGGSLRLSCAASGRIFSYYAMGWYRQAPGKERELVAAISRSGVRTYYADSVKGRFTISRDNAKNTVYLQMNSLKAEDTAVYYCAASGKRFAYIKGRSRPAYGYDYWGQGTQVTVSS”: the “polyreactivity (PSR sort gate)” value is “high polyreactivity”.

As for “QVQLVESGGGLVQAGGSLRLSCAASGRIFSYYAMGWYRQAPGKERELVAAISRTGGTTYYADSVKGRFTISRDTAKNTVFLQMNSLKPEDTAVYYCNAVKAPYLRYDYWGQGTQVTVSS”, the “polyreactivity (PSR sort gate)” value is “high polyreactivity”.

“QVQLVESGGGLVQAGGSLRLSCAASGRIFSYYAMGWYRQAPGKERELVASITWSGGSTYYADSVKGRFTISRDYAKNTVYLQMNRLKPEDTAVYYCNTAVLAPYDSGYWGQGTQVTVSS”: the “polyreactivity (PSR sort gate)” value is on record as “low polyreactivity”.

For “QVQLVESGGGLVQAGGSLRLSCAASGRIFSYYDMGWYRQAPGKEREFVAGITWNGGSTYYADSVKGRFTISRDNAKNTVYLQMNSLKPEDTAVYYCAAGVWRTRDWTYYYWGQGTQVTVSS”, the “polyreactivity (PSR sort gate)” value is listed as “high polyreactivity”.

Regarding “QVQLVESGGGLVQAGGSLRLSCAASGRIFSYYTMGWYRQAPGKERELVAAITSGDSTNYADSVKGRFTISRDNAKNTVYLQMNSLKPEDTAVYYCNARYSGWRSRVGSSHRPDGYWGQGTQVTVSS”, the “polyreactivity (PSR sort gate)” value was “high polyreactivity”.

On to “QVQLVESGGGLVQAGGSLRLSCAASGRIFTAYTMGWYRQAPGKERELVAAISTSGTSTYYADSVKGRFTISRDNAKNTVYLQMNSLKPEDTAVYYCATDYYYYPHSQYDYWGQGTQVTVSS”, for which the “polyreactivity (PSR sort gate)” value is “low polyreactivity”.

With “QVQLVESGGGLVQAGGSLRLSCAASGRIFTCYAMGWYRQAPGKERELVAAISSAGRTYYADSVKGRFTISRDNAKNTVYLQMNSLKPEDSAVYYCAKVSKYRHFYTFDYWGQGTQVTVSS”, the “polyreactivity (PSR sort gate)” value is reported as “high polyreactivity”.

Consider “QVQLVESGGGLVQAGGSLRLSCAASGRIFTDYAMGWYRQAPGKERELVAAISSGGSTYYADSVKGRFTISRDNAKNTVYLQMNSLKPEDTAVYFCAAELFYGRSSSGYYYWGQGTQVTVSS”, for which the “polyreactivity (PSR sort gate)” value is listed as “high polyreactivity”.

As for “QVQLVESGGGLVQAGGSLRLSCAASGRIFTGYAMGWYRQAPGKERELVAAISSSGGTTYYADSVKGRFTISRDNAKNTVYLQMNSLKPEDTAVYYCATDYSYSVDALKYLLYDYWGQGTQVTVSS”, the “polyreactivity (PSR sort gate)” value is on record as “low polyreactivity”.

On to “QVQLVESGGGLVQAGGSLRLSCAASGRIFTGYAMGWYRQAPGKEREVVAAISRGGSTNYADSVKGRFTISRDNAKNTVYLQMNSLKPEDTAVYYCAAGVHWDRGDYWGQGTQVNVSS”, for which the “polyreactivity (PSR sort gate)” value is given as “low polyreactivity”.

With “QVQLVESGGGLVQAGGSLRLSCAASGRIFTGYVMGWYRQAPGKERELVAAITYTGGSTFYADSVKGRFTISRDNAKNTVYLQMNSLKPEDTAVYYCAADESPYFLDIVTYYEFDYWGQGTQVTVSS”, the “polyreactivity (PSR sort gate)” value was “low polyreactivity”.

Regarding “QVQLVESGGGLVQAGGSLRLSCAASGRIFTHNAMGWYRQAPGKERELVAAISYSGVSTYYADSVKGRFTISRDNAKNTVYLQMNSLKPEDTAVYYCAARSRSWRQRYGDFDYWGQGTQVTVSS”, the “polyreactivity (PSR sort gate)” value is listed as “low polyreactivity”.

For “QVQLVESGGGLVQAGGSLRLSCAASGRIFTHNAMGWYRQAPGKERELVAAISYSGVSTYYADSVKGRFTISRDNAKNTVYLQMNSLKPEDTAVYYCNALIQSWRARIRRYYWGQGTQVTVSS”, the “polyreactivity (PSR sort gate)” value was “low polyreactivity”.

On to “QVQLVESGGGLVQAGGSLRLSCAASGRIFTINAMGWYRQAPGKERELVATISDRGGSTYYADTVKGRFTISRDNAKNTVYLQMNSLKPEDTAVYYCAARWGRGLEFDYWGQGTQVTVSS”, for which the “polyreactivity (PSR sort gate)” value is on record as “high polyreactivity”.

As for “QVQLVESGGGLVQAGGSLRLSCAASGRIFTIYAMGWYRQAPAKARELVAAISDRGTRTYYADSVKGRFTISRDNAKNTVFLKMNSLKPEDTAVYYCASDALYTYGYDYWGKGTQVTVSS”, the “polyreactivity (PSR sort gate)” value is reported as “low polyreactivity”.

For “QVQLVESGGGLVQAGGSLRLSCAASGRIFTLYAMGWYRQAPGKEREFVAAINRGGSTNYADSVKGRFTISRDNAKNTVYLQMNSLKPEDTAVYYCAAKTTSRFRTYSYDYWGQGTQVTVSS”, the “polyreactivity (PSR sort gate)” value is reported as “high polyreactivity”.

As for “QVQLVESGGGLVQAGGSLRLSCAASGRIFTLYAMGWYRQAPGKERELVAGISRSGGSTYYADSVKGRFTISRDNAKNTVYFQMNSLKPEDTAVYYCNAVPIYYAWRRNKPFDYWGQGTQVTVSS”, the “polyreactivity (PSR sort gate)” value is “low polyreactivity”.

Turning to “QVQLVESGGGLVQAGGSLRLSCAASGRIFTLYTMGWYRQAPGKERELVAAINRGGSTTYADSVKGRFTISRDNAKNTVYLQMNSLKPEDTAVYYCAAYRYTSRVYSYWRGYDYWGQGTQVTVSS”, the “polyreactivity (PSR sort gate)” value was “high polyreactivity”.

With “QVQLVESGGGLVQAGGSLRLSCAASGRIFTNNPMGWYRQAPGQERELVAAISRSGGRTYYADSVKGRFTISRDNAKNTVYLQRNCLKPEDTAVYYCAAVHLYYGYNSPFTMDYWGQGTQVTVSS”, the “polyreactivity (PSR sort gate)” value is given as “high polyreactivity”.

With “QVQLVESGGGLVQAGGSLRLSCAASGRIFTPYAMGWYRQAPGKEREFVATISFRGDSTYYADSVKGRFTISRDNAKNSVYLQMNSLKPEDTAVYYCAARQYGGYGYWGQGTQVTVSS”, the “polyreactivity (PSR sort gate)” value is reported as “high polyreactivity”.

As to “QVQLVESGGGLVQAGGSLRLSCAASGRIFTPYAMGWYRQAPGKERELVAAISSSGGSTYYADSVKGRFTISRDNAKNTVYLQMNSLKPEDTAVYYCAAVHYRHVRYDYWGQATQVTVSS”, the “polyreactivity (PSR sort gate)” value was “high polyreactivity”.

For “QVQLVESGGGLVQAGGSLRLSCAASGRIFTPYAMGWYRQAPGKERELVAVIRDGSTYYADSVKGRFTISRDNAKNTVYLQMNSLKPEDTAVYYCAVRHRYTRAYWGRDYWGQGTQVTVSS”, the “polyreactivity (PSR sort gate)” value is “low polyreactivity”.

With “QVQLVESGGGLVQAGGSLRLSCAASGRIFTPYAMGWYRQARGKEREVVAVIRDGSTYYADSVKGSFTISRDNAKNTVYLQMNSLKPEDTAVYYCRYDIWVWWSGAYDYWGQGTQVTVSS”, the “polyreactivity (PSR sort gate)” value is “low polyreactivity”.

As to “QVQLVESGGGLVQAGGSLRLSCAASGRIFTQNAMGWNRQAPGKERELVAAISYSGVSTYYADSVKGRFTISRDNAKNTVYLQMNSLKPEDTAVFYCARRYWYPDAFYRYDYWGLGTQVTVSS”, the “polyreactivity (PSR sort gate)” value is listed as “low polyreactivity”.

For the sequence “QVQLVESGGGLVQAGGSLRLSCAASGRIFTQYAMGWYRPPPGKERELVAAINASDGSTYADSVKGRFTISRDNAKNTVYLQMKSLKPEDTAVYYCNVTGGPYDFTRWSEFDHWGQGTQVTVSS”, the “polyreactivity (PSR sort gate)” value is given as “low polyreactivity”.
